According to article PMC7498314, “Microcephaly family protein MCPH1 stabilizes RAD51 filaments” (Nucleic Acids Research, 2020):

T1: MCPH1 (tag-free) (Mus musculus, UniProt Q7TT79 1-822)
T1 sequence: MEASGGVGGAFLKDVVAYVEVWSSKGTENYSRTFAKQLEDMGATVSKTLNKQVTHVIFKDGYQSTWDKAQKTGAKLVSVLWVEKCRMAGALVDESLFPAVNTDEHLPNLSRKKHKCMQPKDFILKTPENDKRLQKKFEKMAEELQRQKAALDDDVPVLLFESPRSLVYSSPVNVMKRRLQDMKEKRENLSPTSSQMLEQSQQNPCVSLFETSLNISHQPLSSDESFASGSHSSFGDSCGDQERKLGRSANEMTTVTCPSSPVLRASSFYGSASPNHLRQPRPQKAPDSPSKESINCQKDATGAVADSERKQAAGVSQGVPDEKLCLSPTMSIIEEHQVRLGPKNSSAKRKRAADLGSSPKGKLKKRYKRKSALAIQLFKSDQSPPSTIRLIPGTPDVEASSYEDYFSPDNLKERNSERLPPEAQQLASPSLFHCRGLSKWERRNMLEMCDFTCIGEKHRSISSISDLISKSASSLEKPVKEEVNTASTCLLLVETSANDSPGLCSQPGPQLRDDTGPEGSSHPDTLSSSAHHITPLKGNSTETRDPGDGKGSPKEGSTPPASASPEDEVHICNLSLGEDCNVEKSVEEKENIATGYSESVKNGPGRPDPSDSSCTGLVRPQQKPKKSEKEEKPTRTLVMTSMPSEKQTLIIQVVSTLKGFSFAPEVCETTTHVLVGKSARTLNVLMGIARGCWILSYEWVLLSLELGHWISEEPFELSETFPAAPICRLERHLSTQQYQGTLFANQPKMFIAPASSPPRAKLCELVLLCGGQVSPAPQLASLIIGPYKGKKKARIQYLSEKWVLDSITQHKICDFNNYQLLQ

T2: (His)6-MBP-tagged mouse MCPH1 (Microcephalin 1) (mouse, UniProt Q7TT79 1-822)
T2 construct: mouse MCPH1 (microcephalin 1), wild type, cDNA NM_173189.2; calculated molecular mass of the untagged protein 90,372 Da; A PreScission protease site lies between the (His)6-MBP tag and MCPH1; the uncleaved, tagged protein was used in the pull-downs; Tag-free MCPH1 (tag cleaved) was used in the Benzonase protection and TPM assays; also called (His)6-MBP-MCPH1; wild-type MCPH1; source: Expi293F …
T2 sequence (looked up): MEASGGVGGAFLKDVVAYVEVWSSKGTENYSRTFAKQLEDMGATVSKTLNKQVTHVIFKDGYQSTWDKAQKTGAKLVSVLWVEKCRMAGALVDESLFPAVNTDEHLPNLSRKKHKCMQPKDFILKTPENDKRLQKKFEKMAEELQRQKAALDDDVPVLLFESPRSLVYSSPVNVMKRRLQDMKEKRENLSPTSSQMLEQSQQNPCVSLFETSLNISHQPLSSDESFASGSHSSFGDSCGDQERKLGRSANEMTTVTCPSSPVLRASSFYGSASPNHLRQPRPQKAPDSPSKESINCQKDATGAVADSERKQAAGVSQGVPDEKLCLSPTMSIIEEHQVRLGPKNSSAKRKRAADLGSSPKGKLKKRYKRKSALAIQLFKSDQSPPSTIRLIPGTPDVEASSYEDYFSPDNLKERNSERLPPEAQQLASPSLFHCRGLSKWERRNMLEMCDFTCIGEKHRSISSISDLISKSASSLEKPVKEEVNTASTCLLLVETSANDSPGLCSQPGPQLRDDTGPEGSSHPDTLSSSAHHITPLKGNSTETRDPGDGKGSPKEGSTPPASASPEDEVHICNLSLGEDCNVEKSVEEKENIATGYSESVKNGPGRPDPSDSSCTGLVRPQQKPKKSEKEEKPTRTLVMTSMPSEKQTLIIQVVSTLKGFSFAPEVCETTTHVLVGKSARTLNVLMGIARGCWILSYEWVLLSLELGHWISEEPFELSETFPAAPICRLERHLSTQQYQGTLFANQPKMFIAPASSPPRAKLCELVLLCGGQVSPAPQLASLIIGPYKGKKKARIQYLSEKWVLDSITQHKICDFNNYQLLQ

B1: Strep-tagged mouse RAD51 (natural protein, UniProt Q08297 1-339, looked up)
chain: MAMQMQLEASADTSVEEESFGPQPISRLEQCGINANDVKKLEEAGYHTVEAVAYAPKKELINIKGISEAKADKILTEAAKLVPMGFTTATEFHQRRSEIIQITTGSKELDKLLQGGIETGSITEMFGEFRTGKTQICHTLAVTCQLPIDRGGGEGKAMYIDTEGTFRPERLLAVAERYGLSGSDVLDNVAYARGFNTDHQTQLLYQASAMMVESRYALLIVDSATALYRTDYSGRGELSARQMHLARFLRMLLRLADEFGVAVVITNQVVAQVDGAAMFAADPKKPIGGNIIAHASTTRLYLRKGRGETRICKIYDSPCLPEAEAMFAINADGVGDAKD
notes: mouse RAD51 recombinase; (His)6-tagged mouse RAD51 was used in the Benzonase protection and TPM assays; also called RAD51 recombinase
B2: Strep-tagged mouse DMC1 (natural protein, UniProt Q61880 1-340, looked up)
chain: MKEDQVVQEESGFQDDEESLFQDIDLLQKHGINMADIKKLKSVGICTIKGIQMTTRRALCNVKGLSEAKVEKIKEAANKLIEPGFLTAFQYSERRKMVFHITTGSQEFDKLLGGGIESMAITEAFGEFRTGKTQLSHTLCVTAQLPGTGGYSGGKIIFIDTENTFRPDRLRDIADRFNVDHEAVLDNVLYARAYTSEHQMELLDYVAAKFHEEAGIFKLLIIDSIMALFRVDFSGRGELAERQQKLAQMLSRLQKISEEYNVAVFVTNQMTADPGATMTFQADPKKPIGGHILAHASTTRISLRKGRGELRIAKIYDSPEMPENEATFAITAGGIGDAKE
notes: mouse DMC1, the meiotic RAD51 homolog; (His)6-tagged mouse DMC1 was used in the Benzonase protection assay; also called meiotic recombinase DMC1

Assays:
[1] = target: B1; test: pull-down; (His)6-SUMO-tagged MCPH1 fragments (2 μg) with Strep-tagged RAD51 or DMC1 (2 μg), same procedure (buffer D, Benzonase, Talon resin); SDS-PAGE and western blot with RAD51 or DMC1 antibody; conditions: both partners purified
[2] = target: B2; test: as above; conditions: both partners purified
[3] = target: T1, MCPH1 (tag-free); test: EMSA; 50 mM KCl; EMSA: 35 mM Tris-HCl pH 7.5, 1 mM DTT, 50 mM KCl, 0.1 ug/ul BSA, 37 C, 5 min; DNA 750 nM (oligos) or 6 uM (PhiX174) nucleotides/bp. TPM: 100 mM KCl (150 mM high salt); conditions: protein: recombinant, tags: none (His6-MBP removed with PreScission)
[4] = target: T2, (His)6-MBP-tagged mouse MCPH1 …; test: pull-down; (His)6-MBP-MCPH1 (4 μg) incubated with recombinase (1 μg) in 30 μl buffer D (25 mM Tris-HCl pH 7.5, 10% glycerol, 0.01% Igepal, 100 mM KCl, 10 mM imidazole) 30 min at 37°C with Benzonase and 2 mM MgCl2; captured on Talon resin via the (His)6 tag; SDS-PAGE with Coomassie Blue staining; conditions: both partners purified

| binding result [1] | binding result [2] | Binder | other results |
| --- | --- | --- | --- |
| binds | binds | (His)6-SUMO-tagged mouse MCPH1 fragment, amino acids 384-476 (central region containing a Condensin-II binding region) (domain or fragment, UniProt Q7TT79 384-476, looked up, also called truncated MCPH1 variant; source: E. coli BL21*(DE3)(pLys), purified (Ni-NTA); not shown: His6, N-terminal, kept; SUMO, N-terminal, kept) PPSTIRLIPGTPDVEASSYEDYFSPDNLKERNSERLPPEAQQLASPSLFHCRGLSKWERRNMLEMCDFTCIGEKHRSISSISDLISKSASSLE | – |
| – | – | dsDNA (Oligo 5+9) (dsDNA) DNA 1: ACGCTGCCGAATTCTACCAGTGCCTTGCTAGGACATCTTTGCCCACCTGCAGGTTCACCC DNA 2: GGGTGAACCTGCAGGTGGGCAAAGATGTCCTAGCAAGGCACTGGTAGAATTCGGCAGCGT | binding result ([3]; label: 5'-32P on Oligo 5, blunt): binds |
| – | – | 3'-overhang DNA (Oligo 5+10) (mixed) DNA 1: ACGCTGCCGAATTCTACCAGTGCCTTGCTAGGACATCTTTGCCCACCTGCAGGTTCACCC DNA 2: AGGCACTGGTAGAATTCGGCAGCGT | binding result ([3]; label: 5'-32P on Oligo 5, 3' overhang 35 nt): binds |
| – | – | Holliday junction (Oligo 5+6+7+8) (structured_DNA) DNA 1: ACGCTGCCGAATTCTACCAGTGCCTTGCTAGGACATCTTTGCCCACCTGCAGGTTCACCC DNA 2: GGGTGAACCTGCAGGTGGGCAAAGATGTCCATCTGTTGTAATCGTCAAGCTTTATGCCGT DNA 3: ACGGCATAAAGCTTGACGATTACAACAGATCATGGAGCTGTCTAGAGGATCCGACTATCG DNA 4: CGATAGTCGGATCCTCTAGACAGCTCCATGTAGCAAGGCACTGGTAGAATTCGGCAGCGT | binding result ([3]; label: 5'-32P on Oligo 5, four-way junction 1:2 2:3 3:4 4:1): binds |
| binds | binds | (His)6-SUMO-tagged mouse MCPH1 fragment, amino acids 287-383 (central region containing the nuclear localization signal) (domain or fragment, UniProt Q7TT79 287-383, looked up, mouse MCPH1, residues 287-383, containing the nuclear localization signal; also called truncated MCPH1 variant; source: E. coli BL21*(DE3)(pLys), purified (Ni-NTA); not shown: His6, N-terminal, kept; SUMO, N-terminal, kept) DSPSKESINCQKDATGAVADSERKQAAGVSQGVPDEKLCLSPTMSIIEEHQVRLGPKNSSAKRKRAADLGSSPKGKLKKRYKRKSALAIQLFKSDQS | – |
| binds | binds | (His)6-SUMO-tagged mouse MCPH1 fragment, amino acids 1-190 (N-terminus, containing BRCT1) (domain or fragment, UniProt Q7TT79 1-190, looked up, mouse MCPH1, residues 1-190, containing BRCT1; also called truncated MCPH1 variant; source: E. coli BL21*(DE3)(pLys), purified (Ni-NTA); not shown: His6, N-terminal, kept; SUMO, N-terminal, kept) MEASGGVGGAFLKDVVAYVEVWSSKGTENYSRTFAKQLEDMGATVSKTLNKQVTHVIFKDGYQSTWDKAQKTGAKLVSVLWVEKCRMAGALVDESLFPAVNTDEHLPNLSRKKHKCMQPKDFILKTPENDKRLQKKFEKMAEELQRQKAALDDDVPVLLFESPRSLVYSSPVNVMKRRLQDMKEKRENLS | – |
| binds | binds | (His)6-SUMO-tagged mouse MCPH1 fragment, amino acids 628-822 (C-terminus, containing BRCT2 and BRCT3) (domain or fragment, UniProt Q7TT79 628-822, looked up, mouse MCPH1, residues 628-822, containing BRCT2 and BRCT3; also called truncated MCPH1 variant; source: E. coli BL21*(DE3)(pLys), purified (Ni-NTA); not shown: His6, N-terminal, kept; SUMO, N-terminal, kept) EKEEKPTRTLVMTSMPSEKQTLIIQVVSTLKGFSFAPEVCETTTHVLVGKSARTLNVLMGIARGCWILSYEWVLLSLELGHWISEEPFELSETFPAAPICRLERHLSTQQYQGTLFANQPKMFIAPASSPPRAKLCELVLLCGGQVSPAPQLASLIIGPYKGKKKARIQYLSEKWVLDSITQHKICDFNNYQLLQ | – |
| – | – | Oligo 3 ssDNA (ssDNA) DNA: GCCGTCGCATGACGCTGCCGAATTCTACCACGCTACTAGGGTGCCTTGCTAGGACATCTTTGCCCACCTGCAGGTTCACCCCGTCCCTGGC | binding result ([3]; label: 5'-32P, single strand): binds |
| – | – | D-loop (Oligo 2+3+4) (mixed) DNA 1: GCCGTCGCATGACGCTGCCGAATTCTACCACGCTACTAGGGTGCCTTGCTAGGACATCTTTGCCCACCTGCAGGTTCACCCCGTCCCTGGC DNA 2: GCCAGGGACGGGGTGAACCTGCAGGTGGGCGGCTGCTCATCGTAGGTTAGTATCGACCTATTGGTAGAATTCGGCAGCGTCATGCGACGGC DNA 3: AAGATGTCCTAGCAAGGCACCCTAGTAGC | binding result ([3]; label: 5'-32P on Oligo 3, D-loop, Oligo 2 and 3 pair at both ends, Oligo 4 pairs in the bubble of Oligo 3): binds |
| – | – | B1 | binding result [4]: binds |
| – | – | B2 | binding result [4]: binds |
